Source: publication PMC4240464

Columns and labels:
[1] = molecular target: Evasin-4–Fc (Rhipicephalus sanguineus); experiment: SPR
[2] = molecular target: Fc–Evasin-4 (Rhipicephalus sanguineus); experiment: SPR
CCL11 (human) = CCL11 (human) (UniProt P51671)
CCL22 (human) = CCL22 (human) (UniProt O00626)
CCL24 (human) = CCL24 (human) (UniProt O00175)
CCL5 (wild type) (human) = CCL5 (wild type) (human) (UniProt P13501)
Sequence of CCL5 (wild type) (human) (P13501 24-91): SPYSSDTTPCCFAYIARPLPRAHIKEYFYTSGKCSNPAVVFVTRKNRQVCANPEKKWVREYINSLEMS

Sequence of CCL26 (Q9Y258 24-94): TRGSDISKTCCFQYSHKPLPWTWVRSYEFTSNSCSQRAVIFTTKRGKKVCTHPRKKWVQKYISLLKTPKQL
Sequence of CCL8 (P80075 24-99): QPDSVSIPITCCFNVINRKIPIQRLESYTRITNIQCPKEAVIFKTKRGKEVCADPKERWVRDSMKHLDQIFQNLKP
Sequence of CCL7 (P80098 24-99): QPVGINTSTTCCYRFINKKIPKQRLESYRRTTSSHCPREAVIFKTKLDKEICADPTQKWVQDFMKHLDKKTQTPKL
Sequence of CCL24 (human) (O00175 27-119): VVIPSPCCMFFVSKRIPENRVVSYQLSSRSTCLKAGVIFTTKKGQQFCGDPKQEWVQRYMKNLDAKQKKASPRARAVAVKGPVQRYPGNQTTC
Sequence of CCL11 (human) (P51671 24-97): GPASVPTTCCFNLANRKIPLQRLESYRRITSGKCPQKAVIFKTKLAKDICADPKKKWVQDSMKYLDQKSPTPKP
Sequence of CCL11 (P51671 24-97): as above
Sequence of CCL3 (P10147 24-92): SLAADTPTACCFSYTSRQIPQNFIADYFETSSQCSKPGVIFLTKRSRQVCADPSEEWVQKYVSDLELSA
Sequence of CCL22 (human) (O00626 25-93): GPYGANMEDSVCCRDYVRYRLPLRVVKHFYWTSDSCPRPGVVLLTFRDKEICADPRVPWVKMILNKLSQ

Row | Substance | Kd [1] [nM] | Kd [2] [nM] | IC50, inhibition of chemotaxis of L1.2 CCR3 cells to CCL11 (EC80 1 nM) (CCL11 (human)) [nM] | IC50, inhibition of chemotaxis of L1.2 CCR4 cells to CCL22 (EC80 1 nM) (CCL22 (human)) [nM] | IC50, inhibition of chemotaxis of L1.2 CCR3 cells to CCL24 (EC80 10 nM) (CCL24 (human)) [nM] | IC50, inhibition of chemotaxis of L1.2 CCR5 cells to CCL5 (EC80 1 nM) (CCL5 (wild type) (human)) [nM]
1 | CCL3 (from UniProt P10147 24-92) (ligand) | 6.79 | 0.277 |  |  |  | 
2 | CCL5 E26A (from UniProt P13501 24-91) (ligand) | 1.72 | 0.02 |  |  |  | 
3 | CCL7 (from UniProt P80098 24-99) (ligand) | 0.053 | 0.134 |  |  |  | 
4 | CCL8 (from UniProt P80075 24-99) (ligand) | 0.015 | 0.088 |  |  |  | 
5 | CCL11 (from UniProt P51671 24-97) (ligand) | 3.6 | 0.099 |  |  |  | 
6 | CCL26 (from UniProt Q9Y258 24-94) (ligand) | 15.6 | 17.3 |  |  |  | 
7 | Evasin-4–Fc (Fc fusion) |  |  | 1540 | 38 | 642 | 9.6
8 | Fc–Evasin-4 (Fc fusion) |  |  | 88 |  | 113 | 
